Earlier results as cited in article PMC5726918.

Target: Asp3 (position 3, ---AADAA---)
Assay: potentiometry
Conditions: free peptide in solution

B1: Alanine-based pentapeptide AADAA (terminally blocked, uncharged) (synthetic) (peptide)
chain: AADAA
In the case of B1, the pKa is given as 3.9.
